Test system: Cabbage Loopers
Assay: Cabbage looper diet overlay bioassay (mortality at 4 days after treatment)
Assay type: in vivo
Procedure: Insecticidal bioassay: Activity against Cabbage Loopers was tested on Diet Overlay Bioassays. The appropriate artificial insect diet was dispensed into each well of a standard 96 well plate and allowed to dry. Once the diet solidified, 100 μL of the treatment was pipetted into the appropriate number of wells and allowed to dry. A single 1st instar larva was delivered into each well of a 96 well plate. Mortality was scored at 4 days after treatment.
Efficacy is expressed as percentage mortality at 4 days post treatment. Results (in duplicates) in % mortality are shown in above Table/chart.
FIG. 6 a plot of an insecticidal bioassay results for various purified compound with and without Sct1. Previous studies have shown that the insecticidal activity present in MBI-203 whole cell broth is mainly attributed to the synergy between secondary metabolites (chromamide analogues) and protein (Sct1). However, for these studies were carried out using mixed chromamides (a mixture of four analogues) and Sct1. With an objective to determine which chromamide analogue is critical for the observed synergy, these individual compounds were purified from MBI-203 WCB, and tested as mixture and individual compounds using the chewing bioassay. All compounds were tested at 3% rate based on the concentration of each present in the MBI-203 WCB. “Chroma mix” contained the chromamides MW 860, MW 874A, MW 874B, and MW 876.
Determination of LC50 value for MW 860 & Sct1. Based on the results from the above testing of purified compounds with & without Sct1, the LC50 for the MW 860, Chromamides MIX and Sct1 was determined. The individual pure compound and their mix were combined with Sct1 and submitted for determining the LC50 value.
FIG. 7 a plot of the effect of variation of concentration of MW 860 & Sct1 on insecticidal activity. Dose dependent study for MW 860 & Sct1 as mixture. To determine the minimum range of concentration of both MW 860 and Sct1 needed for good insecticidal activity, different ratios of both compounds were prepared and submitted for insecticidal bioassay.

Molecule: O=C1NC(c2c[nH]c3ccc(O)cc23)=C/C1=C1\C(=O)Nc2ccccc21 [violacein]
- % Mortality (Cabbage Looper Assay) with sct1 (average of 4 bioassays) (in vivo): 3.269%

Molecule: chromamide A [MW 860]
- mortality (in combination with Sct1, 3% dose, Cabbage looper (CL) bioassay, two subsequent testings): 92%

B1: sct1: Scott protein, ~20 kDa, extracellular secreted hypothetical protein of MBI-203, SEQ ID NO: 1 (protein, listed as Chromobacterium subtsugae)
chain: MSLTTDFLENPQAFMRSQAILIPAQVPPGNGKYQFAAQGAHAAVLQSTAASPNIPGFYAHPVANNINLFVLPTQQPARYYMFTDGMNGCQFLAYGPDRQHITVEHNNFIGDPTRYAARLAEVVALKPAYLLHISPSGVNNIPAGQYNSQQGVNIVGEYGQANGWRFWVRDRVDQNQGTVYGPL
- insecticidal activity when tested individually (tested individually, 3% rate based on concentration in MBI-203 WCB (FIG. 6)): did not show any significant activity
- % Mortality (Cabbage Looper Assay) with sct1 (average of 4 bioassays) (with sct1, 4 days post treatment, compounds at 2% rate based on concentration in MBI-203 WCB, * samples neat (D30 1%, CSM2 2%)): 1.087%
- % Mortality (Cabbage Looper Assay) without sct1 (average of 3 bioassays) (without sct1, 4 days post treatment, compounds at 2% rate based on concentration in MBI-203 WCB, * samples neat (D30 1%, CSM2 2%)): 1.087%

— US20250287954A1, “METHOD AND COMPOSITION OF SYNERGISTIC INSECTICIDAL MIXTURES” (priority 2022, published 2025)
